Measured values as given in paper doi:10.1101/2022.10.18.512691.

What was measured:
[1] = molecular target: APS-kinase from Methanothermococcus thermolithotrophicus (Methanothermococcus thermolithotrophicus); test: crystal structure
[2] = molecular target: ATP-sulfurylase from Methanothermococcus thermolithotrophicus (Methanothermococcus thermolithotrophicus); test: SEC
[3] = molecular target: ATP-sulfurylase from Methanothermococcus thermolithotrophicus (Methanothermococcus thermolithotrophicus); test: crystal structure

Row | stoichiometry N [1] | stoichiometry N [2] | stoichiometry N [3] | Substance
1 | 2 |  |  | APS-kinase from Methanothermococcus thermolithotrophicus (enzyme)
2 |  | 2 | 2 | ATP-sulfurylase from Methanothermococcus thermolithotrophicus (enzyme)
